Results on 24 variants are retold here after the supplement of paper PMC7125110.

First the molecules themselves.
B1: glmS ribozyme (parent)
chain: AUAAAAGCGCCAGAACUACAGAAAUGUAGUUGACGAGGAGGAGGUUUAUCGAAUUUUCGGCGGAUGCCUCCAAA

What all share (details): with glucosamine-6-phosphate
The variants in series [1] derive from B1. As to the kind of experiment: self-cleavage kobs at 40 uM GlcN6P; higher = faster cleavage; RNA array. Summed up: (§1)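 A hybridised Cy3 probe tracked barcoded ribozyme variants, transcribed in situ by E. coli RNA polymerase on sequenced MiSeq chips, at 37 °C. The variants received 40 μM to 10 mM glucosamine-6-phosphate in HEPES/KCl/Mg(OAc)2 buffer. kobs came from decay fits and kcat and KM from weighted Michaelis–Menten fits.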

The variants in series [2] derive from B1. As to the kind of experiment: self-cleavage kobs at 160 uM GlcN6P; higher = faster cleavage; RNA array. A digest of the protocol: as §1
In series [3] the parent is B1. Kind of series: self-cleavage kobs at 640 uM GlcN6P; higher = faster cleavage; RNA array. A digest of the protocol:
as §1

Series [4] covers variants of B1. Kind of series: self-cleavage kobs at 2500 uM GlcN6P; higher = faster cleavage; RNA array. A digest of the protocol:
as §1

The variants in series [5] derive from B1. As to the kind of experiment: self-cleavage kobs at 10000 uM GlcN6P; higher = faster cleavage; RNA array. A digest of the protocol: as §1

± gives the standard error. Fewer inactive variants are shown than the library holds.

A36U C61G A64C: the “self-cleavage kobs at 40 uM GlcN6P” value in series [1] is < 1e-05 s⁻¹.
Consider U31C G37C, for which the “self-cleavage kobs at 40 uM GlcN6P” value in series [1] is < 1e-05 s⁻¹. The “self-cleavage kobs at 160 uM GlcN6P” value in series [2] is < 1e-05 s⁻¹.
For G7A C58G, the “self-cleavage kobs at 40 uM GlcN6P” value in series [1] was < 1e-05 s⁻¹. In addition, the “self-cleavage kobs at 160 uM GlcN6P” value in series [2] is < 1e-05 s⁻¹. Moreover, in series [3], the “self-cleavage kobs at 640 uM GlcN6P” value is < 1e-05 s⁻¹.
Turning to A6C U46A, in series [1], the “self-cleavage kobs at 40 uM GlcN6P” value is < 1e-05 s⁻¹. Besides, the “self-cleavage kobs at 160 uM GlcN6P” value in series [2] was < 1e-05 s⁻¹. Moreover, the “self-cleavage kobs at 640 uM GlcN6P” value in series [3] was < 1e-05 s⁻¹.
For A42U U69G, the “self-cleavage kobs at 40 uM GlcN6P” value in series [1] came to 0.000489 ± 5.4e-05 s⁻¹. In addition, the “self-cleavage kobs at 160 uM GlcN6P” value in series [2] turned out to be 0.000822 ± 0.00011 s⁻¹. For the same variant, in series [3], the “self-cleavage kobs at 640 uM GlcN6P” value was 0.00192 ± 0.00026 s⁻¹. The “self-cleavage kobs at 2500 uM GlcN6P” value in series [4] was 0.00369 ± 0.00061 s⁻¹. In series [5], the “self-cleavage kobs at 10000 uM GlcN6P” value came to 0.00738 ± 0.0015 s⁻¹.
Turning to C16G G35C A36U A42U C50U, in series [1], the “self-cleavage kobs at 40 uM GlcN6P” value was < 1e-05 s⁻¹. Moreover, the “self-cleavage kobs at 10000 uM GlcN6P” value in series [5] was < 1e-05 s⁻¹.
On to G35C C50U, for which, in series [1], the “self-cleavage kobs at 40 uM GlcN6P” value is < 1e-05 s⁻¹. The “self-cleavage kobs at 160 uM GlcN6P” value in series [2] was < 1e-05 s⁻¹. Further, the “self-cleavage kobs at 640 uM GlcN6P” value in series [3] is < 1e-05 s⁻¹. In series [4], the “self-cleavage kobs at 2500 uM GlcN6P” value is < 1e-05 s⁻¹. For the same variant, the “self-cleavage kobs at 10000 uM GlcN6P” value in series [5] is < 1e-05 s⁻¹.
Take A14G C67U: the “self-cleavage kobs at 40 uM GlcN6P” value in series [1] came out at 0.000746 ± 0.00014 s⁻¹. For the same variant, the “self-cleavage kobs at 160 uM GlcN6P” value in series [2] came to 0.00183 ± 0.00033 s⁻¹. The “self-cleavage kobs at 640 uM GlcN6P” value in series [3] amounted to 0.00612 ± 0.00075 s⁻¹. Besides, the “self-cleavage kobs at 2500 uM GlcN6P” value in series [4] was determined as 0.0171 ± 0.0057 s⁻¹.
For the variant C16U U55G, the “self-cleavage kobs at 40 uM GlcN6P” value in series [1] amounted to 0.000446 ± 7.1e-05 s⁻¹. Moreover, in series [2], the “self-cleavage kobs at 160 uM GlcN6P” value came out at 0.00102 ± 0.00026 s⁻¹. For the same variant, the “self-cleavage kobs at 640 uM GlcN6P” value in series [3] amounted to 0.00467 ± 0.0013 s⁻¹. Moreover, in series [4], the “self-cleavage kobs at 2500 uM GlcN6P” value was 0.00554 ± 0.0013 s⁻¹. Moreover, the “self-cleavage kobs at 10000 uM GlcN6P” value in series [5] amounted to 0.0464 ± 0.01 s⁻¹.
U30G C34A G51U A64U: the “self-cleavage kobs at 40 uM GlcN6P” value in series [1] is < 1e-05 s⁻¹.
Turning to G29C G63U, the “self-cleavage kobs at 40 uM GlcN6P” value in series [1] was < 1e-05 s⁻¹. For the same variant, the “self-cleavage kobs at 2500 uM GlcN6P” value in series [4] is < 1e-05 s⁻¹. The “self-cleavage kobs at 10000 uM GlcN6P” value in series [5] is < 1e-05 s⁻¹.
Regarding G9U G37A C67U C71G, the “self-cleavage kobs at 40 uM GlcN6P” value in series [1] was < 1e-05 s⁻¹.
As for U30G G35A, the “self-cleavage kobs at 40 uM GlcN6P” value in series [1] is < 1e-05 s⁻¹. For the same variant, the “self-cleavage kobs at 2500 uM GlcN6P” value in series [4] was < 1e-05 s⁻¹. Also, the “self-cleavage kobs at 10000 uM GlcN6P” value in series [5] is < 1e-05 s⁻¹.
With C61G A64U C68A, in series [1], the “self-cleavage kobs at 40 uM GlcN6P” value was < 1e-05 s⁻¹.
For G37U G41U, the “self-cleavage kobs at 40 uM GlcN6P” value in series [1] is < 1e-05 s⁻¹. Also, the “self-cleavage kobs at 160 uM GlcN6P” value in series [2] is < 1e-05 s⁻¹. For the same variant, in series [4], the “self-cleavage kobs at 2500 uM GlcN6P” value is < 1e-05 s⁻¹. Besides, the “self-cleavage kobs at 10000 uM GlcN6P” value in series [5] was < 1e-05 s⁻¹.
For A33G G62A, in series [1], the “self-cleavage kobs at 40 uM GlcN6P” value was < 1e-05 s⁻¹. For the same variant, the “self-cleavage kobs at 10000 uM GlcN6P” value in series [5] was < 1e-05 s⁻¹.
Regarding A36C G37A G59C C71U, the “self-cleavage kobs at 40 uM GlcN6P” value in series [1] is < 1e-05 s⁻¹. The “self-cleavage kobs at 2500 uM GlcN6P” value in series [4] was < 1e-05 s⁻¹. Also, the “self-cleavage kobs at 10000 uM GlcN6P” value in series [5] is < 1e-05 s⁻¹.
For the variant U49C G63A, in series [1], the “self-cleavage kobs at 40 uM GlcN6P” value was < 1e-05 s⁻¹. The “self-cleavage kobs at 160 uM GlcN6P” value in series [2] was < 1e-05 s⁻¹. For the same variant, the “self-cleavage kobs at 10000 uM GlcN6P” value in series [5] was < 1e-05 s⁻¹.
U56A G62C: the “self-cleavage kobs at 40 uM GlcN6P” value in series [1] is < 1e-05 s⁻¹. For the same variant, in series [4], the “self-cleavage kobs at 2500 uM GlcN6P” value is < 1e-05 s⁻¹. Moreover, in series [5], the “self-cleavage kobs at 10000 uM GlcN6P” value was < 1e-05 s⁻¹.
Take G66C C68A: the “self-cleavage kobs at 40 uM GlcN6P” value in series [1] was < 1e-05 s⁻¹. Besides, the “self-cleavage kobs at 640 uM GlcN6P” value in series [3] came out at 0.000128 ± 5.4e-05 s⁻¹. In addition, the “self-cleavage kobs at 2500 uM GlcN6P” value in series [4] is 5.93e-05 ± 2.7e-05 s⁻¹.
For the variant C16A G29U U30G U49G C70U, the “self-cleavage kobs at 40 uM GlcN6P” value in series [1] was < 1e-05 s⁻¹.
With C34G A52U U55A, the “self-cleavage kobs at 40 uM GlcN6P” value in series [1] is < 1e-05 s⁻¹. Moreover, the “self-cleavage kobs at 2500 uM GlcN6P” value in series [4] is < 1e-05 s⁻¹. Further, in series [5], the “self-cleavage kobs at 10000 uM GlcN6P” value is < 1e-05 s⁻¹.
Turning to C34A U54A G62U G63U, the “self-cleavage kobs at 40 uM GlcN6P” value in series [1] is < 1e-05 s⁻¹. Also, the “self-cleavage kobs at 640 uM GlcN6P” value in series [3] is < 1e-05 s⁻¹. In addition, in series [5], the “self-cleavage kobs at 10000 uM GlcN6P” value was < 1e-05 s⁻¹.
With C11A U31C G44C C70U, in series [1], the “self-cleavage kobs at 40 uM GlcN6P” value is < 1e-05 s⁻¹.
